Measurements: patent US8541373B2, “BChE albumin fusions for the treatment of cocaine abuse” (priority 2009, dated 2013)

Tested on: cocaine
Experiment: Plasma cocaine, benzoylecgonine and ecgonine methyl ester (LC-MS) and cocaine PK after IV cocaine post-AlbuBChE
Assay type: in vivo, cynomolgus monkeys
Experimental: Blood was placed into K2EDTA blood collection tubes with esterase inhibitor diisopropylfluorophosphate (DFP). Tubes were inverted several times and placed on wet ice upon collection. Samples were centrifuged at 2-8° C. within 45 minutes of collection. The resultant plasma was recovered and a single 200 μL aliquot of plasma was placed into polypropylene tubes. Plasma samples were frozen over dry ice and stored at −75±15° C.
The following outline describes the LC-MS-based assay employed for the measurement of cocaine in plasma samples. Prior to MS analysis, plasma samples, calibration standards and controls were extracted using supported liquid extraction (SLE-ISOLUTE, Biotage). Twenty-five microliters of samples (25 μL) received 150 μl of 5% Ammonium hydroxide and 25 μl internal standard solution (Cocaine-d3). After mixing and transfer to SLE plate, samples were eluted with methylene chloride and evaporated to dryness. After resuspension in 50 μl of reconstitution solution—5% ACM in 10 mM ammonium acetate in water, 10 μl was injected onto Thermo Hypercarb column at 0.5 ml/min. Mobile phase was biphasic. Mass spectrophotometric detection was performed using Api 4000, APCI positive interface and Multiple Reaction Monitoring (MRM). Plasma concentrations of cocaine, benzoylecgonine and ecgonine methyl ester were determined using this assay.
When the data permits, pharmacokinetic parameter values for cocaine and its metabolites were determined using plasma concentration-times profiles for individual animals at all the study days of cocaine administration. […] Specifically the model for non-compartmental analysis with IV bolus input for cocaine and extravascular input for the metabolites.

[1] = 1 mg/kg IM, cocaine 1 mg/kg IV 96 hr post-AlbuBChE, 20 min after cocaine
[2] = 1 mg/kg IM, cocaine 1 mg/kg IV 96 hr post-AlbuBChE, 30 min after cocaine
[3] = 1 mg/kg IM, cocaine 1 mg/kg IV 96 hr post-AlbuBChE, 40 min after cocaine
[4] = 1 mg/kg IM, cocaine 1 mg/kg IV 96 hr post-AlbuBChE, 60 min after cocaine
[5] = 1 mg/kg IM, cocaine 1 mg/kg IV 120 hr post-AlbuBChE
[6] = 1 mg/kg IM, cocaine 1 mg/kg IV 120 hr post-AlbuBChE, 5 min after cocaine
[7] = 1 mg/kg IM, cocaine 1 mg/kg IV 120 hr post-AlbuBChE, 10 min after cocaine
[8] = 1 mg/kg IM, cocaine 1 mg/kg IV 120 hr post-AlbuBChE, 15 min after cocaine
[9] = 1 mg/kg IM, cocaine 1 mg/kg IV 120 hr post-AlbuBChE, 20 min after cocaine
[10] = 1 mg/kg IM, cocaine 1 mg/kg IV 120 hr post-AlbuBChE, 30 min after cocaine
[11] = 1 mg/kg IM, cocaine 1 mg/kg IV 120 hr post-AlbuBChE, 40 min after cocaine
[12] = 1 mg/kg IM, cocaine 1 mg/kg IV 120 hr post-AlbuBChE, 60 min after cocaine
[13] = 1 mg/kg IM, cocaine 1 mg/kg IV 240 hr post-AlbuBChE
[14] = 1 mg/kg IM, cocaine 1 mg/kg IV 240 hr post-AlbuBChE, 5 min after cocaine
[15] = 1 mg/kg IM, cocaine 1 mg/kg IV 240 hr post-AlbuBChE, 10 min after cocaine
[16] = 1 mg/kg IM, cocaine 1 mg/kg IV 240 hr post-AlbuBChE, 15 min after cocaine
[17] = 1 mg/kg IM, cocaine 1 mg/kg IV 240 hr post-AlbuBChE, 20 min after cocaine
[18] = 1 mg/kg IM, cocaine 1 mg/kg IV 240 hr post-AlbuBChE, 30 min after cocaine
[19] = 1 mg/kg IM, cocaine 1 mg/kg IV 240 hr post-AlbuBChE, 40 min after cocaine
[20] = 1 mg/kg IM, cocaine 1 mg/kg IV 240 hr post-AlbuBChE, 60 min after cocaine
[21] = 5 mg/kg IM, cocaine 1 mg/kg IV 2 hr post-AlbuBChE
[22] = 5 mg/kg IM, cocaine 1 mg/kg IV 2 hr post-AlbuBChE, 5 min after cocaine
[23] = 5 mg/kg IM, cocaine 1 mg/kg IV 2 hr post-AlbuBChE, 10 min after cocaine
[24] = 5 mg/kg IM, cocaine 1 mg/kg IV 2 hr post-AlbuBChE, 15 min after cocaine
[25] = 5 mg/kg IM, cocaine 1 mg/kg IV 2 hr post-AlbuBChE, 20 min after cocaine
[26] = 5 mg/kg IM, cocaine 1 mg/kg IV 2 hr post-AlbuBChE, 30 min after cocaine
[27] = 5 mg/kg IM, cocaine 1 mg/kg IV 2 hr post-AlbuBChE, 40 min after cocaine
[28] = 5 mg/kg IM, cocaine 1 mg/kg IV 2 hr post-AlbuBChE, 60 min after cocaine
[29] = 5 mg/kg IM, cocaine 1 mg/kg IV 48 hr post-AlbuBChE
[30] = 5 mg/kg IM, cocaine 1 mg/kg IV 48 hr post-AlbuBChE, 5 min after cocaine

## AlbuBChE
[1]
  Ecgonine methyl ester plasma concentration (mean): 47.3 ng/mL
  Mean benzoylecgonine plasma concentration: 43.7 ng/mL
  Mean cocaine plasma concentration: 208 ng/mL
[2]
  Ecgonine methyl ester plasma concentration (mean): 57.3 ng/mL
  Mean benzoylecgonine plasma concentration: 47.4 ng/mL
  Mean cocaine plasma concentration: 162 ng/mL
[3]
  Ecgonine methyl ester plasma concentration (mean): 64.4 ng/mL
  Mean benzoylecgonine plasma concentration: 46.7 ng/mL
  Mean cocaine plasma concentration: 123 ng/mL
[4]
  Ecgonine methyl ester plasma concentration (mean): 59.9 ng/mL
  Mean benzoylecgonine plasma concentration: 49.6 ng/mL
  Mean cocaine plasma concentration: 64.8 ng/mL
[5]
  Mean benzoylecgonine AUC(0-t): 2809 ng·min/mL
  Mean cocaine AUC % Extrap: 22.4%
  Mean cocaine AUC(0-t): 11526 ng·min/mL
  Mean cocaine AUC(0-∞): 14838 ng·min/mL
  Mean cocaine C0: 0.491 µg/mL
  Mean cocaine CI: 4.04 L/h/kg
  Mean cocaine Vss: 2.687 L/kg
  Mean cocaine t½: 28.6 min
[6]
  Ecgonine methyl ester plasma concentration (mean): 42.7 ng/mL
  Mean benzoylecgonine plasma concentration: 37.2 ng/mL
  Mean cocaine plasma concentration: 356 ng/mL
[7]
  Ecgonine methyl ester plasma concentration (mean): 27.4 ng/mL
  Mean benzoylecgonine plasma concentration: 38.9 ng/mL
  Mean cocaine plasma concentration: 263 ng/mL
[8]
  Ecgonine methyl ester plasma concentration (mean): 37.8 ng/mL
  Mean benzoylecgonine plasma concentration: 42.2 ng/mL
  Mean cocaine plasma concentration: 233 ng/mL
[9]
  Ecgonine methyl ester plasma concentration (mean): 31.8 ng/mL
  Mean benzoylecgonine plasma concentration: 40.2 ng/mL
  Mean cocaine plasma concentration: 202 ng/mL
[10]
  Ecgonine methyl ester plasma concentration (mean): 104 ng/mL
  Mean benzoylecgonine plasma concentration: 51.3 ng/mL
  Mean cocaine plasma concentration: 161 ng/mL
[11]
  Ecgonine methyl ester plasma concentration (mean): 68.6 ng/mL
  Mean benzoylecgonine plasma concentration: 50.9 ng/mL
  Mean cocaine plasma concentration: 141 ng/mL
[12]
  Ecgonine methyl ester plasma concentration (mean): 76.8 ng/mL
  Mean benzoylecgonine plasma concentration: 54.4 ng/mL
  Mean cocaine plasma concentration: 79.7 ng/mL
[13]
  Mean benzoylecgonine AUC(0-t): 3660 ng·min/mL
  Mean cocaine AUC % Extrap: 26.7%
  Mean cocaine AUC(0-t): 14364 ng·min/mL
  Mean cocaine AUC(0-∞): 19623 ng·min/mL
  Mean cocaine C0: 0.467 µg/mL
  Mean cocaine CI: 3.07 L/h/kg
  Mean cocaine Vss: 2.288 L/kg
  Mean cocaine t½: 31.0 min
[14]
  Ecgonine methyl ester plasma concentration (mean): 92.7 ng/mL
  Mean benzoylecgonine plasma concentration: 40.0 ng/mL
  Mean cocaine plasma concentration: 397 ng/mL
[15]
  Ecgonine methyl ester plasma concentration (mean): 21.9 ng/mL
  Mean benzoylecgonine plasma concentration: 47.2 ng/mL
  Mean cocaine plasma concentration: 340 ng/mL
[16]
  Ecgonine methyl ester plasma concentration (mean): 25.9 ng/mL
  Mean benzoylecgonine plasma concentration: 55.0 ng/mL
  Mean cocaine plasma concentration: 300 ng/mL
[17]
  Ecgonine methyl ester plasma concentration (mean): 29.5 ng/mL
  Mean benzoylecgonine plasma concentration: 56.7 ng/mL
  Mean cocaine plasma concentration: 259 ng/mL
[18]
  Ecgonine methyl ester plasma concentration (mean): 41.3 ng/mL
  Mean benzoylecgonine plasma concentration: 64.6 ng/mL
  Mean cocaine plasma concentration: 218 ng/mL
[19]
  Ecgonine methyl ester plasma concentration (mean): 51.8 ng/mL
  Mean benzoylecgonine plasma concentration: 68.3 ng/mL
  Mean cocaine plasma concentration: 181 ng/mL
[20]
  Ecgonine methyl ester plasma concentration (mean): 54.3 ng/mL
  Mean benzoylecgonine plasma concentration: 75.2 ng/mL
  Mean cocaine plasma concentration: 117 ng/mL
[21]
  Mean benzoylecgonine AUC(0-t): 1405 ng·min/mL
  Mean cocaine AUC(0-t): 3289 ng·min/mL
  Mean cocaine C0: 0.271 µg/mL
[22]
  Ecgonine methyl ester plasma concentration (mean): 337 ng/mL
  Mean benzoylecgonine plasma concentration: 22.3 ng/mL
  Mean cocaine plasma concentration: 145 ng/mL
[23]
  Ecgonine methyl ester plasma concentration (mean): 321 ng/mL
  Mean benzoylecgonine plasma concentration: 23.7 ng/mL
  Mean cocaine plasma concentration: 77.9 ng/mL
[24]
  Ecgonine methyl ester plasma concentration (mean): 363 ng/mL
  Mean benzoylecgonine plasma concentration: 22.0 ng/mL
  Mean cocaine plasma concentration: 43.5 ng/mL
[25]
  Ecgonine methyl ester plasma concentration (mean): 331 ng/mL
  Mean benzoylecgonine plasma concentration: 22.9 ng/mL
  Mean cocaine plasma concentration: 12.8 ng/mL
[26]
  Ecgonine methyl ester plasma concentration (mean): 266 ng/mL
  Mean benzoylecgonine plasma concentration: 31.1 ng/mL
  Mean cocaine plasma concentration: 110 ng/mL
[27]
  Ecgonine methyl ester plasma concentration (mean): 308 ng/mL
  Mean benzoylecgonine plasma concentration: 21.3 ng/mL
  Mean cocaine plasma concentration: 4.96 ng/mL
[28]
  Ecgonine methyl ester plasma concentration (mean): 248 ng/mL
  Mean benzoylecgonine plasma concentration: 20.1 ng/mL
  Mean cocaine plasma concentration: 2.26 ng/mL
[29]
  Mean benzoylecgonine AUC(0-t): 1441 ng·min/mL
  Mean cocaine AUC % Extrap: 3.0%
  Mean cocaine AUC(0-t): 3015 ng·min/mL
  Mean cocaine AUC(0-∞): 3110 ng·min/mL
  Mean cocaine C0: 0.177 µg/mL
  Mean cocaine CI: 19.5 L/h/kg
  Mean cocaine Vss: 5.729 L/kg
  Mean cocaine t½: 11.4 min
[30]
  Ecgonine methyl ester plasma concentration (mean): 119 ng/mL
  Mean benzoylecgonine plasma concentration: 20.0 ng/mL
  Mean cocaine plasma concentration: 126 ng/mL
